The target of assay [1] is secretory immunoglobulin A1 (sIgA1) from human colostrum (human (endogenous in colostrum)) (UniProt P01591).
Assay [2] shares this target. The assay is described as follows: dynamic light scattering; sIgA1 titrated with FTL (0.06–1.94 mg/mL); Z-average diameter against FTL:sIgA1 molar ratio; Hill fit; apparent KD.
The target is the same in assay [3]. As to the kind of experiment: BLI; Octet RED96; sIgA1 immobilised on AR2G biosensors via amine coupling, FTL as analyte; 25 °C; PBS with 0.02% Tween-20; global fit, 1:2 bivalent analyte model. (In general: BLI is a label-free optical method that tracks binding on a fibre tip over time.)
Assay [4] has as its target frutalin (FTL), galactose-specific jacalin-related lectin from Artocarpus altilis (syn. Artocarpus incisa) seeds (Artocarpus altilis (syn. Artocarpus incisa)). The assay is described as follows: SEC; FTL alone on a Superdex column equilibrated in PBS + 50 mM D-galactose; single peak at Ve = 15.57 mL; apparent mass from calibration; oligomer of alpha-beta protomers. On the technique in general: SEC sorts molecules by how far they enter the pores of the column.

The term stoichiometry N denotes a count of units in the complex or per binding partner. The term koff denotes the rate constant with which the complex falls apart. A high value points to a short-lived complex. As a reminder, the kon is the rate constant with which the complex forms. Higher therefore signals faster complex formation. For the substance “frutalin (FTL), galactose-specific jacalin-related lectin from Artocarpus altilis (syn. Artocarpus incisa) seeds (natural protein)”, the hemagglutination titer (rabbit erythrocytes) of the preformed FTL–sIgA1 complex at 1 mg/mL, with 0 to 200 mM D-galactose (∼2^8 at 200 mM); free FTL ∼2^17 (∼2^9 at 200 mM galactose); sIgA1 alone ∼2^4 in assay [1] was 65500 HU. Further, in assay [2], the stoichiometry N was 1 to 1.5 FTL:sIgA1. Further, in assay [3], the koff came to 0.00214 s⁻¹ and the kon was found to be 596000 M⁻¹ s⁻¹. Besides, the stoichiometry N in assay [4] was determined as 2.

For the origin of these results see PMC12713436.
